Measurements taken from PMC9405973, “Altered Conformational Landscape upon Sensing Guanine Nucleotides in a Disease Mutant of Elongation Factor-like 1 (EFL1) GTPase” (Biomolecules, 2022).
Substitutions are numbered along the chain they refer to. In names and notes the source's numbering stands.

B1: Efl1 R1086Q (Saccharomyces cerevisiae S288C; R1086Q) (protein)
chain: MPRVESETYKRLQNDPSCIRNICIVAHVDHGKTSLSDSLLASNGIISQRLAGKIRFLDARPDEQLRGITMESSAISLYFRVLRKQEGSDEPLVSEHLVNLIDSPGHIDFSSEVSAASRLCDGAVVLVDVVEGVCSQTVTVLRQCWTEKLKPILVLNKIDRLITELQLTPQEAYIHLSKVIEQVNSVIGSFFANERQLDDLFWREQLEKNENAEYIEKDDSGIYFNPTDNNVIFASAIDGWGFNIGQLAKFYEQKLGAKRENLQKVLWGDFYMDPKTKKIINNKGLKGRSLKPLFTSLILENIWKIYQNIITSRDSEMVEKIAKTLNIKLLARDLRSKDDKQLLRTIMGQWLPVSTAVLLTVIEKLPSPLESQTDRLNTILVSESDTAAMDPRLLKAMKTCDKEGPVSAYVSKMLSIPREELPVESKRIASSDELMERSRKAREEALNAAKHAGMVENMAMMDLNDNSKNTSDLYKRAKDTVMTPEVGEQTKPKPSRNNDVFCVVSEPSSALDLEFEYEGEDDSDSQDNFGLDFVPTDIDPNDPLSSMFEYEEEDPLLESIKQISEDVNDEVDDIFDEKEECLVAFARIYSGTLRVGQEISVLGPKYDPKCPEEHIETAIITHLYLFMGKELVPLDVCPSGNIVGIRGLAGKVLKSGTLIEKGVQGVNLAGVNFHFTPIVRVAVEPANPVEMSKLVRGLKLLDQADPCVHTYVENTGEHILCTAGELHLERCLKDLTERFAGIEITHSEPAIPYRETFLSASDMNPPQNSQLGRGVHELLLSQYKITFRTFPLSGKVTDFLSQHQNSIKNILKTSTSSMDPVIESTGSSFLDKKSLLVAFEEVINQEEKSRELLSGFKVKLAGFGPSRVGCNILLSQDNLLGSLFEGTPAAFEYSDSIKNGFQLAVSEGPLANEPVQGMCVLVESVHKMSQDEIESIEDPRYQQHIVDLSGRLITSTRDAIHEAFLDWSPRIMWAIYSCDIQTSVDVLGKVYAVILQRHGKIISEEMKEGTPFFQIEAHVPVVEAFGLSEDIRKRTSGAAQPQLVFSGFECIDLDPFWVPTTEEELEELGDTADRENIARKHMNAIQRRKGLFIEEKVVENAEKQRTLKKN
notes: recombinantly expressed in S. cerevisiae; isolated GTPase
B2: Efl1 L910K (Saccharomyces cerevisiae S288C; L910K) (protein)
chain: B1 chain with L910K, Q1086R
notes: as for B1
B3: Efl1 WT • Sdo1: binary complex of wild-type Efl1 GTPase and effector Sdo1 (protein, UniProt P53893 1-1110; Q07953 1-250, looked up)
Ribosome assembly protein 1: B1 chain with Q1086R
Ribosome maturation protein …: MPINQPSGQIKLTNVSLVRLKKARKRFEVACYQNKVQDYRKGIEKDLDEVLQIHQVFMNVSKGLVANKEDLQKCFGTTNVDDVIEEIMHKGEIQLSEKERQLMLNKVNNEMLTIVSAKCINPVSKKRYPPTMIHKALQELKFSPVINKPAKLQALEAIKLLVSKQIIPIVRAKMKVKVAISEPSRQPELIEKISKLIASSPGESTKPELDPWTCTGLIDPVNYRDLMTLCDKKGTVQVLDMAVIDNTTHN
modifications: binary complex
B4: Efl1 L910K • Sdo1: binary complex of mutant GTPase Efl1 L910K and effector Sdo1 (protein, UniProt P53893 1-1110; Q07953 1-250, looked up, variant L910K)
Ribosome assembly protein 1: B1 chain with L910K, Q1086R
Ribosome maturation protein …: B3 Ribosome maturation protein …
modifications: binary complex

Key:
[1] = biological target: Sdo1 (Saccharomyces cerevisiae) (UniProt Q07953); assay: ITC; details: cited from earlier work
[2] = Enzyme kinetics of GTP hydrolysis (PNP coupled assay, Michaelis–Menten); format: biochemical, Saccharomyces cerevisiae
Procedure: (§1) Finally, we measured the enzyme kinetics of mutant Efl1 R1086Q as an isolated enzyme and bound to Sdo1 using an enzymatic coupled assay with a purine nucleoside phosphorylase (PNP) enzyme. This analysis was extended to another disease mutation (EFL1 M882K) also located in domain IV of the GTPase using the equivalent yeast variant, Efl1 L910K [17]. The Km and kcat kinetic parameters were calculated using non-linear regression assuming a Michaelis–Menten model (Supplementary Table S1). […] The catalytic constant for mutant R1086Q and the wild-type enzyme consisted of 0.67 min^−1, and it was 0.58 min^−1 for mutant Efl1 L910K. […] In line with the proposed role of Sdo1 as a guanine exchange factor of Efl1, previous results have shown that the interaction of wild-type Efl1 with Sdo1 impacted its Km for GTP, decreasing its value 2–3-fold. The Km values for the complexes formed between Sdo1 and Efl1 mutants decreased by half with respect to their cognate-free counterpart and differed from each other. […] The measured Km value comprises all the microscopic rate constants of the individual reactions occurring in the enzyme, which include the binding to the substrate and product and the corresponding conformational changes.
Hydrolysis of GTP was measured using the Enzchek Phosphate Assay kit (Molecular Probes) as described by Webb. Standard reactions consisted of 100 µL containing 6 µM of Efl1 R1086Q and Efl1 L910K, 0.3 mM MESG, 1.0 U purine nucleoside phosphorylase (PNP) and the indicated amounts of GTP. Measurements done in the presence of effector protein contained 25 µM of Sdo1.
The reaction buffer consisted of 50 mM HEPES -KOH pH 7.5, 150 mM NaCl, 5 mM MgCl2.
(§2) Reactions were initiated and the GTPase was added after 3 min. Time courses were followed by recording the change in absorbance at 360 nm in a Cary 60 UV -Vis spectrophotometer (Agilent Technologies). Background absorbance was recorded prior to the addition of the GTPase and subtracted from the sample signals. The slope of the measured time courses corresponded to the GTP hydrolysis rate. The concentration of releas ed phosphate was estimated using a molar absorption coefficient at 360 nm of 14,386 M -1 cm-1 previously described in [2]. Data were analysed by nonlinear regression to the M ichaelis-Menten equation with the program Origin Version 5.0 (OriginLab, Co., Northampton, MA). […]
M HEPES-KOH pH 7.4, 2.5 mM magnesium acetate, 50 mM sucrose, 2 mM DTT, 0.1 mM PMSF, 0.1 mM benzamidine, 8 mM putrescine, 1 mM spermidine. […]
Dilution at the end of each titration was no longer than 2.5% of the initial volume. Data were corrected for the background signal by subtracting the fluorescence of the same ligand concentration without the GTPase in the reaction mixture.
(§3) Maximum emission at 440 nm was replotted as a function of nucleotide concentration and analysed

[3] = test system: Tif6 bound to 60S subunits; assay: Tif6 release assay with purified yeast components; format: biochemical, Saccharomyces cerevisiae; details: 50 nM Efl1 variant, 50 nM Sdo1, 100 µM GTP, 30 °C, 10 min
Procedure: The release of Tif6 (yeast orthologue of eIF6) was performed as previously described in [3, 15]. Reaction mixtures contained 10 nM 60S subunits, 40 nM Tif6, 50 nM Efl1 variant, 50 nM Sdo1, and 100 µM GTP in buffer of 10 mM Tris-HCl at pH 7.4, 75 mM KCl, and 1.5 mM MgCl2 supplemented with RNAse inhibitors (Promega, Madison, WI, USA) and protease inhibitors free of EDTA (GoldBio, St. Louis, MO, USA). GTP was omitted in the negative control, and 50 mM EDTA was added as the positive control to disassemble the 60S ribosomal subunits. Reaction mixtures of 100 µL were incubated at 30 °C for 10 min and added on top of 150 µL of a 30% sucrose cushion prepared in the same buffer. Samples were centrifuged at 476,000× g for 30 min in an Optima tabletop MX ultracentrifuge with a TLA-100 rotor. The top 200 µL (free fraction) was recovered, and the remaining 50 µL was resuspended in 150 µL of the same buffer. Samples were precipitated with 30% trichloroacetic acid, electrophoresed in 10% Tris-glycine SDS-PAGE, transferred to a PVDF membrane, and immunoblotted with antibodies anti-eIF6 (PA531066; Thermo Scientific; dilution 1:3000) and anti-uL3 (OAAB09713; Aviva Systems Biology, San Diego, CA, USA; dilution 1:500) overnight at 4 °C. […] Signals were quantified using programme Image J version 1.8.0. […]

[4] = substrate: Nc1nc2c(ncn2[C@@H]2O[C@H](COP(=O)(O)OP(=O)(O)OP(=O)(O)O)[C@@H](O)[C@H]2O)c(=O)[nH]1; assay: GTP hydrolysis by PNP-coupled Enzchek phosphate assay (MESG, 360 nm), pH 7.5, 5 mM MgCl2, 6 µM Efl1 alone, Michaelis-Menten fit.; format: biochemical; details: 25.0 °C
Procedure: as §1
Hydrolysis of GTP was measured using the Enzchek Phosphate Assay kit (Molecular Probes) as described by Webb. […]
as §2, with “The concentration of releas ed phosphate was estimated using a molar absorption coefficient at 360 nm of 14,386 M -1 cm-1 previously described in [2].” left out
as §3

[5] = enzyme in complex with Sdo1 (25 µM Sdo1)

Row | Molecule | Km [4] [µM] | kcat [2, 5] [s⁻¹] | other results
1 | Efl1 (from UniProt P53893) | – | – | Kd [1]: 300 nM
2 | B1 | 146 | – | kcat ([2]; isolated enzyme): 0.0112 s⁻¹; release of Tif6 from the 60S subunit (distribution of Tif6 in free and bound fraction, immunoblot) [3]: reduced portion of Tif6 in the free fraction compared with that for the wild type
3 | B2 | 185 | – | –
4 | B3 | – | 0.0107 | –
5 | B4 | – | 0.0125 | –
